{"source": "paper PMC5908797", "about": "“Evolutionary plasticity of the NHL domain underlies distinct solutions to RNA recognition”", "key": {"CeLIN41 filamin-NHL [1]": {"biological_target": "T1, CeLIN41 filamin-NHL (Caenorhabditis elegans, UniProt Q9U489 691-1147)", "T1 sequence": "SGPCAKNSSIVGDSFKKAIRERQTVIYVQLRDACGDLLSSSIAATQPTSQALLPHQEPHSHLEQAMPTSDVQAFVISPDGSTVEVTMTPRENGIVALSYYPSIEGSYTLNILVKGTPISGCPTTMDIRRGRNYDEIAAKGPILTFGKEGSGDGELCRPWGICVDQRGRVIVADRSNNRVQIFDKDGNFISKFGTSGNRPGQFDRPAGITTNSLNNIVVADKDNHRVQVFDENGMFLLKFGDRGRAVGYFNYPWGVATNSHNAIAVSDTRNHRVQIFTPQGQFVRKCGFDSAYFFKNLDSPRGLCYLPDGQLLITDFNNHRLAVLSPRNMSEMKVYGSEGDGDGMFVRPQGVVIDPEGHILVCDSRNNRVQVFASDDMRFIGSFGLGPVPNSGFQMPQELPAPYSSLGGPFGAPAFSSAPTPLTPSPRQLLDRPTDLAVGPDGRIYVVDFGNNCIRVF", "assay": "fluorescence polarization; FP: 20 mM HEPES, 200 mM NaCl, 0.05% Tween20, 100 nM Cy5-RNA, 30 min room temp; EMSA: 1x of 2x buffer (20 mM Hepes pH 8, 100 mM KCl, 200 mM NaCl, 0.2 mM EDTA, 20 mM DTT, 2 mM MgCl2, 2 mM CaCl2, 0.2 mM ZnSO4, 60% glycerol, heparin, E. coli tRNA), 5 uM protein stock (1 ul in 8 ul), ~2 nM RNA, room temp", "settings": "protein: recombinant, tags: N-terminal Strep tag, TEV site, label: 5'-Cy5, hairpin"}, "CeLIN41 filamin-NHL [2]": {"biological_target": "T1, CeLIN41 filamin-NHL", "assay": "EMSA; FP: 20 mM HEPES, 200 mM NaCl, 0.05% Tween20, 100 nM Cy5-RNA, 30 min room temp; EMSA: 1x of 2x buffer (20 mM Hepes pH 8, 100 mM KCl, 200 mM NaCl, 0.2 mM EDTA, 20 mM DTT, 2 mM MgCl2, 2 mM CaCl2, 0.2 mM ZnSO4, 60% glycerol, heparin, E. coli tRNA), 5 uM protein stock (1 ul in 8 ul), ~2 nM RNA, room temp", "settings": "protein: recombinant, tags: N-terminal Strep tag, TEV site, label: 32P (radioactive) body label"}, "CeLIN41 filamin-NHL [3]": {"biological_target": "T1, CeLIN41 filamin-NHL", "assay": "EMSA; restored to wild-type level; FP: 20 mM HEPES, 200 mM NaCl, 0.05% Tween20, 100 nM Cy5-RNA, 30 min room temp; EMSA: 1x of 2x buffer (20 mM Hepes pH 8, 100 mM KCl, 200 mM NaCl, 0.2 mM EDTA, 20 mM DTT, 2 mM MgCl2, 2 mM CaCl2, 0.2 mM ZnSO4, 60% glycerol, heparin, E. coli tRNA), 5 uM protein stock (1 ul in 8 ul), ~2 nM RNA, room temp", "settings": "protein: recombinant; tags: N-terminal Strep tag, TEV site; label: 32P (radioactive) body label; stems restored by compensatory mutations"}, "CeLIN41 filamin-NHL [4]": {"biological_target": "T1, CeLIN41 filamin-NHL", "assay": "EMSA; restored; FP: 20 mM HEPES, 200 mM NaCl, 0.05% Tween20, 100 nM Cy5-RNA, 30 min room temp; EMSA: 1x of 2x buffer (20 mM Hepes pH 8, 100 mM KCl, 200 mM NaCl, 0.2 mM EDTA, 20 mM DTT, 2 mM MgCl2, 2 mM CaCl2, 0.2 mM ZnSO4, 60% glycerol, heparin, E. coli tRNA), 5 uM protein stock (1 ul in 8 ul), ~2 nM RNA, room temp", "settings": "protein: recombinant; tags: N-terminal Strep tag, TEV site; label: 32P (radioactive) body label; SL I and III restored"}}}
{"binder": "GGAGUCCAACUCC (structured_RNA)", "note": "[L1 (lin-29A SL I, WT LRE)]", "values": [{"measurement": "Kd", "setting": "CeLIN41 filamin-NHL [1]; 5 bp stem, tri-loop", "value": 1.32, "unit": "µM"}]}
{"binder": "GCUGACCAACUCC (structured_RNA)", "note": "[Ctrl (5-nt loop)]", "values": [{"measurement": "binding result", "setting": "CeLIN41 filamin-NHL [1]; 5 nt loop", "value": "no binding"}]}
{"binder": "mab-10 part 2 (structured_RNA) RNA: UAAAUUCCCGCCCCCUUCGCUCGGAGUCAUAUAAUUUCCUUCUCUUCCUAUCACUUUUUUGUCUAGUUUUCAAAAAACCCCCCAUUUUUCCGGCGGUUUUUCAAAAACCAAUGCCAAGCUCUCAUAUAAUGGGAGUCUAAACACAGUUCGGUUCCAAAACCAACGCCCACGGCCCCGCCCCCAAUUAGAUAAUUUAAAUA", "values": [{"measurement": "binding result", "setting": "CeLIN41 filamin-NHL [2]; tri-loop stem-loops", "value": "binds"}]}
{"binder": "mab-10 part 2 mut-res (structured_RNA) RNA: UAAAUUCCCGCCCCCUUCGCUCGGAGUCAUAUAAUUUCCUUCUCUUCCUAUCACUUUUUUGUCUAGUUUUCAAAAAACCCCCCAUUUUUCCGGCGCUUUUUCAAAAAGCAAUGCCAAGCUCUGAUAUAAUCGGAGUCUAAACACAGUUCGGUUCCAAAACCAACGCCCACGGCCCCGCCCCCAAUUAGAUAAUUUAAAUA", "values": [{"measurement": "binding result", "setting": "CeLIN41 filamin-NHL [3]", "value": "binds"}]}
{"binder": "mab-10 part 4 (structured_RNA) RNA: UCGCAUCCAAUGCAUUGCAAGUUGAUUGCUUUUAUAAAUUUUUGGGUCUCGAAGCGAAAAGCCCAUAGGAUUUUCACAAAAAUUUUGCAUUUAAUGCAGUGAAAAUUCAAAAAAUUCAAAGAUUUUUCUGAAUAGAUCAAAUUUUCAAAUUUUCCGGUCAUUCGAAAUGGCCUAAUUUGCUCCAAAAAUUUGAAUAAUCC", "values": [{"measurement": "binding result", "setting": "CeLIN41 filamin-NHL [2]; tri-loop stem-loops", "value": "binds"}]}
{"binder": "mab-10 part 4 mut-res (structured_RNA) RNA: UCGGAUCCAAUCCAUUGCAAGUUGAUUGCUUUUAUAAAUUUUUGGGUCUCGAAGCGAAAAGCCCAUAGGAUUUUCACAAAAAUUUUGGAUUUAAUCCAGUGAAAAUUCAAAAAAUUCAAAGAUUUUUCUGAAUAGAUCAAAUUUUCAAAUUUUCCGGUGAUUCGAAAUCGCCUAAUUUGCUCCAAAAAUUUGAAUAAUCC", "values": [{"measurement": "binding result", "setting": "CeLIN41 filamin-NHL [3]", "value": "binds"}]}
{"binder": "mab-10 condensed 3'UTR (structured_RNA) RNA: UCUAGUUUUCAAAAAACCCCCCAUUUUUCCGGCGGUUUUUCAAAAACCAAUGCCAAGCUCUCAUAUAAUGGGAGUCUAAACACAGUUCGGUUCCAAAACUGAAAAACUUCAAUUUCGCAUCCAAUGCAUUGCAAGUUGAUUGCUUUUCACAAAAAUUUUGCAUUUAAUGCAGUGAAAAUUUUCCGGUCAUUCGAAAUGGCCUAAUUUGCUCCAAAAA", "values": [{"measurement": "binding result", "setting": "CeLIN41 filamin-NHL [2]; five tri-loop stem-loops", "value": "binds"}]}
{"binder": "mab-10 condensed 3'UTR mut (structured_RNA) RNA: UCUAGUUUUCAAAAAACCCCCCAUUUUUCCGGCGCUUUUUCAAAAACCAAUGCCAAGCUCUGAUAUAAUGGGAGUCUAAACACAGUUCGGUUCCAAAACUGAAAAACUUCAAUUUCGGAUCCAAUGCAUUGCAAGUUGAUUGCUUUUCACAAAAAUUUUGGAUUUAAUGCAGUGAAAAUUUUCCGGUGAUUCGAAAUGGCCUAAUUUGCUCCAAAAA", "values": [{"measurement": "binding result", "setting": "CeLIN41 filamin-NHL [2]; five stems disrupted", "value": "no binding"}]}
{"binder": "mab-10 condensed 3'UTR mut-res (structured_RNA) RNA: UCUAGUUUUCAAAAAACCCCCCAUUUUUCCGGCGCUUUUUCAAAAAGCAAUGCCAAGCUCUGAUAUAAUCGGAGUCUAAACACAGUUCGGUUCCAAAACUGAAAAACUUCAAUUUCGGAUCCAAUCCAUUGCAAGUUGAUUGCUUUUCACAAAAAUUUUGGAUUUAAUCCAGUGAAAAUUUUCCGGUGAUUCGAAAUCGCCUAAUUUGCUCCAAAAA", "values": [{"measurement": "binding result", "setting": "CeLIN41 filamin-NHL [2]; five stems restored", "value": "binds"}]}
{"binder": "lin-29A 5'UTR (structured_RNA) RNA: GUUCCGAACCAAUUCGCCUAGCGAACCUUGGAGUCCAACUCCGUUUUUACUCUUUUCUGAAAAGAGCCUACUAAAUAUUGGAACUAUAAUCAAACUAUUCGAUCAAAUCGACACACCUACUAGAUAUCAAAUAUCUAAUACUGGAACCAAGGCUUGGGUAACCUGAAACUGUGCGAAUUUGGAGCAGAAAUAUU", "values": [{"measurement": "binding result", "setting": "CeLIN41 filamin-NHL [2]; four tri-loop stem-loops", "value": "binds"}]}
{"binder": "lin-29A mut2-res (structured_RNA) RNA: GUUCCGAACCAAUUCGCCUAGCGAACCUUGGACUCCAAGUCCGUUUUUACUCUUUUCUGAAAAGAGCCUACUAAAUAUUGGAACUAUAAUCAAACUAUUCCAUCAAAUGGACACACCUACUAGAUAUCAAAUAUCUAAUACUGGAACCAAGGCUUGGGUAACCUGAAACUGUGCGAAUUUGGAGCAGAAAUAUU", "values": [{"measurement": "binding result", "setting": "CeLIN41 filamin-NHL [4]", "value": "binds"}]}
